Results as given in patent US20250205337A1, “COMPOSITIONS AND METHODS FOR ACTIVATING IMMUNE CELLS” (MDX Management LLC, priority 2022, published 2025).
Entries after “also recorded” stand apart in the source; their conditions may differ.

What was measured:
Format in all cases: cell-based, human
[1] = system: monocytes from cancer patients (cMo); assay: cMo survival in vitro (STAT3 activators, inhibitors, M-CSF/GM-CSF, KX1); conditions: for effect of inhibitor on KX1-supported cMo survival: cMo in KX1; for cMo survival (and differentiation) on supplementation: IL-10-depleted KX1 / in place of IL-10
Text: After two days, the T cell culture medium was used to treat cMo.
IL-10/IL-10R signaling activates the downstream STAT3 signaling pathway.
(§1) The mechanisms by which KX1 could promote cMo survival was further studied.

[2] = system: monocytes from healthy donors (Mo); assay: Response of monocytes from healthy donors (Mo) to M-CSF and GM-CSF
Text: Similarly, cMo poorly respond to GM-CSF alone or GM-CSF plus IL-4 that drives DC differentiation (data not shown). […] Parallel experiments testing the same M-CSF and GM-CSF reagents successfully differentiated Mo from healthy donors with >90% survival rates.
(§2) Examination of Akt and Erk1/2, as well as other signaling molecules, detected similar total levels in Mo versus cMo (FIG. 2C), ruling out the absence of protein phosphorylation due to reduction of protein translation.

[3] = system: monocytes from cancer patients (cMo); assay: Cytokine depletion assays of Karnelian X1 (cMo survival/adhesion and differentiation); conditions: for role of the cytokine in Karnelian X1 for cMo survival and differentiation: depletion assays
Experimental: The differentiation of cMo from >100 cancer patient samples was tested.
The role of IL-10 and other key factors in KX1 was further studied.

[4] = system: Akt, Erk1/2, STAT3, caspase-9 and caspase-3 in cMo; assay: Survival and apoptosis signal transduction in cMo (Western blotting)
Text: as §2, §1
The role of IL-10 and other key factors in KX1 was further studied. As shown in FIG. 9A-9D, depletion of IL-10 diminished (>70%) KX1-mediated activation of Akt, Erk 1/2, and STAT3, and this global reduction of survival signal was associated with an increase in cell death signal through activation of caspase-9 and caspase-3.
As shown in FIG. 10A-10C, triple cytokine combination (C-combo V1) was capable of achieving >80% cMo differentiation, although each component alone was not sufficient.

[5] = in vitro, at optimal concentration
[6] = promoting cMo survival in vitro, small molecule STAT3 activators
[7] = promoting cMo survival in vitro
[8] = cytokine depleted from Karnelian X1

Cc1[nH]nc2ccc(-c3cncc(OC[C@@H](N)Cc4ccccc4)c3)cc12 [A-674563, reference compound]
effect of inhibitor on KX1-supported cMo survival [1]: abrogated KX1 effectiveness

COc1ccc(S(=O)(=O)Nc2cc(-c3c(O)ccc4ccccc34)c(O)c3ccccc23)cc1 [C188-9, reference compound]
effect of inhibitor on KX1-supported cMo survival [1]: dose-dependently nullified the effect of KX1

NC1(Cc2ccc(Cl)cc2)CCN(c2ncnc3[nH]ccc23)CC1 [CCT128930, reference compound]
effect of inhibitor on KX1-supported cMo survival [1]: abrogated KX1 effectiveness

COc1c(O)cc2oc3cc(O)c(CC=C(C)C)c(O)c3c(=O)c2c1CCC(C)(C)O [Garcinone D, reference compound]
cMo survival (and differentiation) on supplementation [1]: restored cMo survival | Effectiveness (cMo survival rate) [1, 5]: 90-100% | Optimal concentration (ng/mL) [1, 6]: 500 to 2000 ng/mL

CC(=O)c1cc2c(o1)C(=O)c1ccccc1C2=O [Napabucasin, reference compound]
effect of inhibitor on KX1-supported cMo survival [1]: dose-dependently nullified the effect of KX1

N#CC(=C(/N)Sc1ccccc1N)/C(C#N)=C(\N)Sc1ccccc1N [U0126, reference compound]
effect of inhibitor on KX1-supported cMo survival [1]: abrogated KX1 effectiveness

Colivelin TFA [reference compound]
cMo survival (and differentiation) on supplementation [1]: restored cMo survival | Effectiveness (cMo survival rate) [1, 5]: 90-100% | Optimal concentration (ng/mL) [1, 6]: 10000 to 100000 ng/mL

GM-CSF: Granulocyte-macrophage colony-stimulating factor
cMo responsiveness to differentiation factor ([1]; over twenty cMo samples, various solid tumors): non- or poor responsiveness | survival signal transduction in Mo (activation of Akt and Erk1/2) [2]: induced strong survival signal transduction in Mo cells | role of the cytokine in Karnelian X1 for cMo survival and differentiation [3]: variable | activation of Akt, Erk1/2, STAT3 in cMo [4]: failed to activate Akt and Erk1/2 | caspase-9 and caspase-3 cleavage in cMo [4]: increased caspase-9 and caspase-3 cleavage; also recorded: did induce apoptotic signals via cleavage of caspase-9 and caspase-3

IL-6: Interleukin 6, IL-6 family cytokine
cMo survival (and differentiation) on supplementation [1]: only moderately supported cMo survival and differentiation | Effectiveness (cMo survival rate) [1, 5]: 20-30% | Optimal concentration [1, 7]: 20 to 100 ng/mL | role of the cytokine in Karnelian X1 for cMo survival and differentiation [3]: variable | activation of Akt, Erk1/2, STAT3 in cMo [4]: weaker ability to activate Akt in cMo

IL-17: cytokine in Karnelian X1
role of the cytokine in Karnelian X1 for cMo survival and differentiation [3]: dispensable

JAK inhibitor I [reference compound]
effect of inhibitor on KX1-supported cMo survival [1]: dose-dependently nullified the effect of KX1

TNFα
reduction of cMo adhesion and survival on depletion of the cytokine from Karnelian X1 [3, 8]: ~20%

B1: IL-24: IL-10 family cytokine, STAT3 activator (protein, UniProt Q13007 52-206, looked up)
Interleukin-24: QEFHFGPCQVKGVVPQKLWEAFWAVKDTMQAQDNITSARLLQQEVLQNVSDAESCYLVHTLLEFYLKTVFKNYHNRTVEVRTLKSFSTLANNFVLIVSQLQPSQENEMFSIRDSAHRRFLLFRRAFKQLDVEAALTKALGEVDILLTWMQKFYKL
cMo survival (and differentiation) on supplementation [1]: could replace IL-10 to support cMo survival and differentiation | Effectiveness (cMo survival rate) [1, 5]: 70-85% | Optimal concentration (ng/mL) [1, 7]: >20 ng/mL (20-100)

B2: IL-23: IL-12 family cytokine, STAT3 activator (protein, UniProt Q9NPF7 20-189; P29460 23-328, looked up)
Interleukin-23 subunit alpha: RAVPGGSSPAWTQCQQLSQKLCTLAWSAHPLVGHMDLREEGDEETTNDVPHIQCGDGCDPQGLRDNSQFCLQRIHQGLIFYEKLLGSDIFTGEPSLLPDSPVGQLHASLLGLSQLLQPEGHHWETQQIPSLSPSQPWQRLLLRFKILRSLQAFVAVAARVFAHGAATLSP
Interleukin-12 subunit beta: IWELKKDVYVVELDWYPDAPGEMVVLTCDTPEEDGITWTLDQSSEVLGSGKTLTIQVKEFGDAGQYTCHKGGEVLSHSLLLLHKKEDGIWSTDILKDQKEPKNKTFLRCEAKNYSGRFTCWWLTTISTDLTFSVKSSRGSSDPQGVTCGAATLSAERVRGDNKEYEYSVECQEDSACPAAEESLPIEVMVDAVHKLKYENYTSSFFIRDIIKPDPPKNLQLKPLKNSRQVEVSWEYPDTWSTPHSYFSLTFCVQVQGKSKREKKDRVFTDKTSATVICRKNASISVRAQDRYYSSSWSEWASVPCS
cMo survival (and differentiation) on supplementation [1]: could replace IL-10 to support cMo survival and differentiation | Effectiveness (cMo survival rate) [1, 5]: 50-70% | Optimal concentration (ng/mL) [1, 7]: >10 ng/mL (10-100)

B3: IL-11: IL-6 family member cytokine (protein, UniProt P20809 22-199, looked up)
Interleukin-11: PGPPPGPPRVSPDPRAELDSTVLLTRSLLADTRQLAAQLRDKFPADGDHNLDSLPTLAMSAGALGALQLPGVLTRLRADLLSYLRHVQWLRRAGGSSLKTLEPELGTLQARLDRLLRRLQLLMSRLALPQPPPDPPAPPLAPPSSAWGGIRAAHAILGGLHLTLDWAVRGLLLLKTRL
cMo survival (and differentiation) on supplementation [1]: only moderately supported cMo survival and differentiation

B4: IL-10: Interleukin 10, cytokine; recombinant form added back; IL-10 family STAT3 activator (protein, UniProt P22301 19-178, looked up)
Interleukin-10: SPGQGTQSENSCTHFPGNLPNMLRDLRDAFSRVKTFFQMKDQLDNLLLKESLLEDFKGYLGCQALSEMIQFYLEEVMPQAENQDPDIKAHVNSLGENLKTLRLRLRRCHRFLPCENKSKAVEQVKNAFNKLQEKGIYKAMSEFDIFINYIEAYMTMKIRN
cMo survival (and differentiation) on supplementation [1]: dose-dependently restored its survival capacity | Effectiveness (cMo survival rate) [1, 5]: 90-100% | Optimal concentration (ng/mL) [1, 7]: >10 ng/mL (10-100) | remnant cells that survived IL-10 depletion ([3]; IL-10 depleted from Karnelian X1): 5-20% | reduction of cMo adhesion and survival on depletion of the cytokine from Karnelian X1 [3, 8]: 60-80% | role of the cytokine in Karnelian X1 for cMo survival and differentiation [3]: only weakly influence cMo differentiation to APCs | diminution of KX1-mediated activation of Akt, Erk 1/2 and STAT3 ([4]; cytokine depleted from KX1): > 70%

B5: IL-19: IL-10 family cytokine, STAT3 activator (protein, UniProt Q9UHD0 25-177, looked up)
Interleukin-19: LRRCLISTDMHHIEESFQEIKRAIQAKDTFPNVTILSTLETLQIIKPLDVCCVTKNLLAFYVDRVFKDHQEPNPKILRKISSIANSFLYMQKTLRQCQEQRQCHCRQEATNATRVIHDNYDQLEVHAAAIKSLGELDVFLAWINKNHEVMFSA
cMo survival (and differentiation) on supplementation [1]: could replace IL-10 to support cMo survival and differentiation | Effectiveness (cMo survival rate) [1, 5]: 70-85% | Optimal concentration (ng/mL) [1, 7]: >10 ng/mL (10-100)

B6: IL-22: IL-10 family cytokine, STAT3 activator (protein, UniProt Q9GZX6 34-179, looked up)
Interleukin-22: APISSHCRLDKSNFQQPYITNRTFMLAKEASLADNNTDVRLIGEKLFHGVSMSERCYLMKQVLNFTLEEVLFPQSDRFQPYMQEVVPFLARLSNRLSTCHIEGDDLHIQRNVQKLKDTVKKLGESGEIKAIGELDLLFMSLRNACI
cMo survival (and differentiation) on supplementation [1]: could replace IL-10 to support cMo survival and differentiation | Effectiveness (cMo survival rate) [1, 5]: 80-100% | Optimal concentration (ng/mL) [1, 7]: >10 ng/mL (10-100)

B7: IFNγ: Interferon gamma, cytokine in Karnelian X1 (protein, UniProt P01579 24-161, looked up)
Interferon gamma: QDPYVKEAENLKKYFNAGHSDVADNGTLFLGILKNWKEESDRKIMQSQIVSFYFKLFKNFKDDQSIQKSVETIKEDMNVKFFNSNKKKRDDFEKLTNYSVTDLNVQRKAIHELIQVMAELSPAAKTGKRKRSQMLFRG
reduction of cMo adhesion and survival on depletion of the cytokine from Karnelian X1 [3, 8]: ~20%

B8: IL-4: Interleukin 4, cytokine in Karnelian X1 (protein, UniProt P05112 25-153, looked up)
Interleukin-4: HKCDITLQEIIKTLNSLTEQKTLCTELTVTDIFAASKNTTEKETFCRAATVLRQFYSHHEKDTRCLGATAQQFHRHKQLIRFLKRLDRNLWGLAGLNSCPVKEANQSTLENFLERLKTIMREKYSKCSS
reduction of cMo differentiation to APCs [3, 8]: ~50% | role of the cytokine in Karnelian X1 for cMo survival and differentiation [3]: did not affect cMo survival/adhesion

B9: G-CSF: growth factor tested in IL-10-depleted KX1 (protein, UniProt P09919 31-207, looked up)
Granulocyte …: TPLGPASSLPQSFLLKCLEQVRKIQGDGAALQEKLVSECATYKLCHPEELVLLGHSLGIPWAPLSSCPSQALQLAGCLSQLHSGLFLYQGLLQALEGISPELGPTLDTLQLDVADFATTIWQQMEELGMAPALQPTQGAMPAFASAFQRRAGGVLVASHLQSFLEVSYRVLRHLAQP
Effectiveness (cMo survival rate) ([1]; in IL-10-depleted KX1): 30-40% in | Optimal concentration (ng/mL) ([1]; in IL-10-depleted KX1): >1 ng/mL (1-200)
